Each block holds one binder with its values, some of them ahead of it. Groups on a side chain read outwards from the residue. No end group written: not given here.
Legend:
[1] = biological target: T1, recombinant human NME7-AB (human, UniProt Q9Y5B8 92-376); test: sandwich ELISA, PSMGFR-His bound to NME7 held by plate-bound PSMGFR, anti-Histag-HRP
T1 construct: Expressed in E. coli, lacks the DM10 domain, monomer; also called NME7 monomer
T1 sequence: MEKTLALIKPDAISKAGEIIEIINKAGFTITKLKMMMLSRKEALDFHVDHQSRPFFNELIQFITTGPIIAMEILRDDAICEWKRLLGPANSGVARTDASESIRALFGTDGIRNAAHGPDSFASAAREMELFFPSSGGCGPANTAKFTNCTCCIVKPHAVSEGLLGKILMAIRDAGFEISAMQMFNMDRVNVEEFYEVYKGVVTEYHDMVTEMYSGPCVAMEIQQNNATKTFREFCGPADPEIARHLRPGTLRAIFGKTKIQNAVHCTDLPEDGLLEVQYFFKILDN
Method: (§1) The PSMGFR peptide bearing a C-terminal Cysteine (PSMGFR-Cys) was covalently coupled to BSA using Imject Maleimide activated BSA kit (Thermo Fisher). PSMGFR-Cys coupled BSA was diluted to 10 ug/mL in 0.1M carbonate/bicarbonate buffer pH 9.6 and 50 uL was added to each well of a 96 well plate. After overnight incubation at 4° C., the plate was washed twice with PBS-T and a 3% BSA solution was added to block remaining binding site on the well. After 1 h at RT the plate was washed twice with PBS-T and NME7, diluted in PBS-T+1% BSA, was added at different concentrations. After 1 h at RT the plate was washed 3× with PBS-T and anti-NM23-H7 (B-9, Santa Cruz Biotechnology), diluted in PBS-T+1% BSA, was added at 1/500 dilution. […] After 1 h at RT the plate was washed 3× with PBS-T and binding of NME7 was measured at 415 nm using ABTS solution (Pierce). […]
(§2) After 1 h at RT the plate was washed 3× with PBS-T and HisTagged PSMGFR peptide (PSMGFR-His) or biotinylated PSMGFR peptide (PSMGFR-biotin), diluted in PBS-T+1% BSA, was added at different concentration. […] After 1 h at RT the plate was washed 3× with PBS-T and binding of PSMGFR peptide to NME7 already bound to another PSMGFR peptide (which could not signal by anti-His antibody or by streptavidin) coupled BSA was measured at 415 nm using a ABTS solution (Pierce).

[2] = biological target: T1, recombinant human NME7-AB; test: sandwich ELISA, PSMGFR-biotin bound to NME7 held by plate-bound PSMGFR, streptavidin-HRP
Method: as §1, §2

[3] = biological target: T1, recombinant human NME7-AB; test: sandwich ELISA
Method: as §1, §2

[4] = biological target: T1, recombinant human NME7-AB; test: ELISA, PSMGFR-Cys coupled BSA on the plate, NME7 detected with B-9
Method: The PSMGFR peptide bearing a C-terminal Cysteine (PSMGFR-Cys) was covalently coupled to BSA using Imject Maleimide activated BSA kit (Thermo Fisher). PSMGFR-Cys coupled BSA was diluted to 10 ug/mL in 0.1M carbonate/bicarbonate buffer pH 9.6 and 50 uL was added to each well of a 96 well plate. After overnight incubation at 4° C., the plate was washed twice with PBS-T and a 3% BSA solution was added to block remaining binding site on the well. After 1 h at RT the plate was washed twice with PBS-T and NME7, diluted in PBS-T+1% BSA, was added at different concentrations. After 1 h at RT the plate was washed 3× with PBS-T and anti-NM23-H7 (B-9, Santa Cruz Biotechnology), diluted in PBS-T+1% BSA, was added at 1/500 dilution. After 1 h at RT the plate was washed 3× with PBS-T and goat anti mouse-HRP, diluted in PBS-T+1% BSA, was added at 1/3333 dilution. After 1 h at RT the plate was washed 3× with PBS-T and binding of NME7 was measured at 415 nm using ABTS solution (Pierce).

B1: His-tagged PSMGFR peptide (peptide)
peptide: GTINVHDVETQFNQYKTEAASRYNLTISDVSVSDVPFPFSAQSGA
notes: also called PSMGFR-His; not shown: histidine tag
- binding result [1]: binds

Binder: GTINVHDVETQFNQYKTEAASRYNLTISDVSVSDVPFPFSAQSGA (also: biotinylated (position not given here), also called PSMGFR-biotin) [biotinylated PSMGFR peptide]
- binding result [2]: binds

More lines, now with the values ahead:

- binding result [3]: binds
B2: MUC1* extracellular domain peptide (PSMGFR peptide) (peptide)
peptide: GTINVHDVETQFNQYKTEAASRYNLTISDVSVSDVPFPFSAQSGA
notes: also called synthetic MUC1* peptide; surface immobilized MUC1* peptide

- binding result [4]: binds
B3: PSMGFR peptide bearing a C-terminal Cysteine, coupled to BSA (peptide)
peptide: GTINVHDVETQFNQYKTEAASRYNLTISDVSVSDVPFPFSAQSGAC([maleimide-BSA])
notes: also called PSMGFR-Cys; PSMGFR-Cys coupled BSA
